Data: PMC6888877, “Deconstructing and repurposing the light-regulated interplay between Arabidopsis phytochromes and interacting factors” (Communications Biology, 2019)

Experiments:
Assay in all cases: SEC; 50 µM AtPhyB PCM + 10 µM AtPIF-EYFP (5:1), illuminated with red light (650 nm, 2 min; results say 640 nm), Pfr state; Superdex 200 Increase 10/300 GL; 67 mM sodium phosphate pH 8.0, 200 mM NaCl
Conditions in all cases: both partners purified
[1] = biological target: T1, P6.AAfus-EYFP (Arabidopsis thaliana)
T1 chain: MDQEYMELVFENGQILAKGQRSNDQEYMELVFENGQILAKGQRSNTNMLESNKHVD

[2] = biological target: T2, P6.A-EYFP (Arabidopsis thaliana)
T2 chain: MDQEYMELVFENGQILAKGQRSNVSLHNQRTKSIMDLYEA

[3] = biological target: T3, P3.fus-EYFP (Arabidopsis thaliana)
T3 chain: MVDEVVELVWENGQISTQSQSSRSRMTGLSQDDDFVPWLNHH

[4] = biological target: T4, AtPIF3 (1-100)-EYFP, P3.100 (Arabidopsis thaliana, UniProt O80536 1-100)
T4 construct: A. thaliana PIF3, residues 1-100; His6-SUMO only on the pET-19b construct that was purified; the pET-28c construct used in lysate has the same AtPIF part, linker and EYFP; also called P3.100-EYFP; source: E. coli BL21(DE3): in crude lysate (pET-28c), and purified (pET-19b; IMAC, SENP2 cleavage, second IMAC, optional anion exchange); not shown: His6-SUMO, N-terminal, cleaved
T4 sequence (looked up): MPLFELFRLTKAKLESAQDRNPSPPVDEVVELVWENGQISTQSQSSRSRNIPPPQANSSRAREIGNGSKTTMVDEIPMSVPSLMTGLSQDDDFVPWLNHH

Measured: stoichiometry N

B1: Arabidopsis thaliana phytochrome B photosensory core module (AtPhyB PCM) (domain or fragment, UniProt P14713 1-651, looked up)
chain: MVSGVGGSGGGRGGGRGGEEEPSSSHTPNNRRGGEQAQSSGTKSLRPRSNTESMSKAIQQYTVDARLHAVFEQSGESGKSFDYSQSLKTTTYGSSVPEQQITAYLSRIQRGGYIQPFGCMIAVDESSFRIIGYSENAREMLGIMPQSVPTLEKPEILAMGTDVRSLFTSSSSILLERAFVAREITLLNPVWIHSKNTGKPFYAILHRIDVGVVIDLEPARTEDPALSIAGAVQSQKLAVRAISQLQALPGGDIKLLCDTVVESVRDLTGYDRVMVYKFHEDEHGEVVAESKRDDLEPYIGLHYPATDIPQASRFLFKQNRVRMIVDCNATPVLVVQDDRLTQSMCLVGSTLRAPHGCHSQYMANMGSIASLAMAVIINGNEDDGSNVASGRSSMRLWGLVVCHHTSSRCIPFPLRYACEFLMQAFGLQLNMELQLALQMSEKRVLRTQTLLCDMLLRDSPAGIVTQSPSIMDLVKCDGAAFLYHGKYYPLGVAPSEVQIKDVVEWLLANHADSTGLSTDSLGDAGYPGAAALGDAVCGMAVAYITKRDFLFWFRSHTAKEIKWGGAKHHPEDKDDGQRMHPRSSFQAFLEVVKSRSQPWETAEMDAIHSLQLILRDSFKESEAAMNSKVVDGVVQPCRDMAGEQGIDELGA
modifications: covalently incorporated bilin chromophore (PCB; co-expressed Synechocystis sp. heme oxygenase 1 and pcyA)
notes: A. thaliana phytochrome B, photosensory core module (PAS-GAF-PHY with N-terminal extension), residues 1-651; Pr state (far-red light or dark) and Pfr state (red light; Pfr/Pr about 0.56/0.44) are told apart by the assays; In the cell experiments other constructs were used (PCM-VP16; PCM 1-650 with CAAX); source: E. coli BL21(DE3), plasmid pDG282, purified (Ni-NTA IMAC, anion exchange)
1: all assays above
